From IntAct's records for PubMed 20937695 come the findings set out here.

B1: "Na(+)/H(+) exchange regulatory cofactor NHE-RF1" (Homo sapiens), O14745 (parent)
chain: MSADAAAGAPLPRLCCLEKGPNGYGFHLHGEKGKLGQYIRLVEPGSPAEKAGLLAGDRLVEVNGENVEKETHQQVVSRIRAALNAVRLLVVDPETDEQLQKLGVQVREELLRAQEAPGQAEPPAAAEVQGAGNENEPREADKSHPEQRELRPRLCTMKKGPSGYGFNLHSDKSKPGQFIRSVDPDSPAEASGLRAQDRIVEVNGVCMEGKQHGDVVSAIRAGGDETKLLVVDRETDEFFKKCRVIPSQEHLNGPLPVPFTNGEIQKENSREALAEAALESPRPALVRSASSDTSEELNSQDSPPKQDSTAPSSTSSSDPILDFNISLAMAKERAHQKRSSKRAPQMDWSKKNELFSNL
B2: "Na(+)/H(+) exchange regulatory cofactor NHE-RF1" (Homo sapiens), O14745 (parent)
chain: B1 chain
partner: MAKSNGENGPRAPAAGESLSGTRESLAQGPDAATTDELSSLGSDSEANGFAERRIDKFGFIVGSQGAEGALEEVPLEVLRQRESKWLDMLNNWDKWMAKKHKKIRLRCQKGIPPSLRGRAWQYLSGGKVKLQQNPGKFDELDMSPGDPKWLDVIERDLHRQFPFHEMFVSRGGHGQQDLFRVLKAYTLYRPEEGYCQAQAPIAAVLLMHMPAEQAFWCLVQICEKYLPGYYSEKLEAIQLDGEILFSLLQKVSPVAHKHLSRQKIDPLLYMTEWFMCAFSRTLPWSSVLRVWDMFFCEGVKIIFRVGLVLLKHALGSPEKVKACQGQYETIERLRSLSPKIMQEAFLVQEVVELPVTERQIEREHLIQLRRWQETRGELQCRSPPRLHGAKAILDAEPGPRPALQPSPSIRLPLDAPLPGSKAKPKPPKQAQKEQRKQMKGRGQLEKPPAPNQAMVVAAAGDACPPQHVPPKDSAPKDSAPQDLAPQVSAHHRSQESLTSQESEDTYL

The variants in one assay derive from B1. As to conditions: with ezri_human EZR.
As to MSADAAAGAPLPRLCCLEKGPNGYGFHLHGEKGKLGQYIRLVEPGSPAEKAGLLAGDRLVEVNGENVEKETHQQVVSRIRAALNAVRLLVVDPETDEQLQKLGVQVREELLRAQEAPGQAEPPAAAEVQGAGNENEPREADKSHPEQRELRPRLCTMKKGPSGYGFNLHSDKSKPGQFIRSVDPDSPAEASGLRAQDRIVEVNGVCMEGKQHGDVVSAIRAGGDETKLLVVDRETDEFFKKCRVIPSQEHLNGPLPVPFTNGEIQKENSREALAEAALEDPRPALVRSASSDTSEELNSQDDPPKQDSTAPSSTSSSDPILDFNISLAMAKERAHQKRSSKRAPQMDWSKKNELFSNL [S280D;S302D], the “effect of a mutation on the interaction” value is listed as “decreasing interaction strength”.

With MSADAAAGAPLPRLCCLEKGPNGYGFHLHGEKGKLGQYIRLVEPGSPAEKAGLLAGDRLVEVNGENVEKETHQQVVSRIRAALNAVRLLVVDPETDEQLQKLGVQVREELLRAQEAPGQAEPPAAAEVQGAGNENEPREADKSHPEQRELRPRLCTMKKGPDGYGFNLHSDKSKPGQFIRSVDPDSPAEASGLRAQDRIVEVNGVCMEGKQHGDVVSAIRAGGDETKLLVVDRETDEFFKKCRVIPSQEHLNGPLPVPFTNGEIQKENSREALAEAALESPRPALVRSASSDTSEELNSQDSPPKQDSTAPSSTSSSDPILDFNISLAMAKERAHQKRDDKRAPQMDWSKKNELFSNL [S162D;S339D;S340D], the “effect of a mutation on the interaction” value is recorded as “decreasing interaction strength”. The same measure, in the same setting: then MSADAAAGAPLPRLCCLEKGPNGYGFHLHGEKGKLGQYIRLVEPGSPAEKAGLLAGDRLVEVNGENVEKETHQQVVSRIRAALNAVRLLVVDPETDEQLQKLGVQVREELLRAQEAPGQAEPPAAAEVQGAGNENEPREADKSHPEQRELRPRLCTMKKGPSGYGFNLHSDKSKPGQFIRSVDPDSPAEASGLRAQDRIVEVNGVCMEGKQHGDVVSAIRAGGDETKLLVVDRETDEFFKKCRVIPSQEHLNGPLPVPFTNGEIQKENSREALAEAALEAPRPALVRSASSDTSEELNSQDAPPKQDSTAPSSTSSSDPILDFNISLAMAKERAHQKRSSKRAPQMDWSKKNELFSNL [S280A;S302A], with “decreasing interaction strength”; and MSADAAAGAPLPRLCCLEKGPNGYGFHLHGEKGKLGQYIRLVEPGSPAEKAGLLAGDRLVEVNGENVEKETHQQVVSRIRAALNAVRLLVVDPETDEQLQKLGVQVREELLRAQEAPGQAEPPAAAEVQGAGNENEPREADKSHPEQRELRPRLCTMKKGPAGYGFNLHSDKSKPGQFIRSVDPDSPAEASGLRAQDRIVEVNGVCMEGKQHGDVVSAIRAGGDETKLLVVDRETDEFFKKCRVIPSQEHLNGPLPVPFTNGEIQKENSREALAEAALESPRPALVRSASSDTSEELNSQDSPPKQDSTAPSSTSSSDPILDFNISLAMAKERAHQKRAAKRAPQMDWSKKNELFSNL [S162A;S339A;S340A], with “decreasing interaction strength”.

Variants of B1 are the subject of the next assay. The settings on record: with ezri_human EZR. The source holds these as a separate data set.
As to MSADAAAGAPLPRLCCLEKGPNGYGFHLHGEKGKLGQYIRLVEPGSPAEKAGLLAGDRLVEVNGENVEKETHQQVVSRIRAALNAVRLLVVDPETDEQLQKLGVQVREELLRAQEAPGQAEPPAAAEVQGAGNENEPREADKSHPEQRELRPRLCTMKKGPSGYGFNLHSDKSKPGQFIRSVDPDSPAEASGLRAQDRIVEVNGVCMEGKQHGDVVSAIRAGGDETKLLVVDRETDEFFKKCRVIPSQEHLNGPLPVPFTNGEIQKENSREALAEAALESPRPALVRSASSDTSEELNSQDSPPKQDSTAPSSTSSSDPILDFNISLAMAKERAHQKRSSKRAPQADASKKNELFSNL [M346A;W348A], the “effect of a mutation on the interaction” value was “decreasing interaction strength”. Still for that read-out and setting: then MSADAAAGAPLPRLCCLEKGPNGYGFHLHGEKGKLGQYIRLVEPGSPAEKAGLLAGDRLVEVNGENVEKETHQQVVSRIRAALNAVRLLVVDPETDEQLQKLGVQVREELLRAQEAPGQAEPPAAAEVQGAGNENEPREADKSHPEQRELRPRLCTMKKGPSGYGFNLHSDKSKPGQFIRSVDPDSPAEASGLRAQDRIVEVNGVCMEGKQHGDVVSAIRAGGDETKLLVVDRETDEFFKKCRVIPSQEHLNGPLPVPFTNGEIQKENSREALAEAALESPRPALVRSASSDTSEELNSQDSPPKQDSTAPSSTSSSDPILDFNISLAMAKERAHQKRSSKRAPQMDWSKKNELRSNL [F355R], with “disrupting interaction strength”; and MSADAAAGAPLPRLCCLEKGPNGYGFHLHGEKGKLGQYIRLVEPGSPAEKAGLLAGDRLVEVNGENVEKETHQQVVSRIRAALNAVRLLVVDPETDEQLQKLGVQVREELLRAQEAPGQAEPPAAAEVQGAGNENEPREADKSHPEQRELRPRLCTMKKGPSGYGFNLHSDKSKPGQFIRSVDPDSPAEASGLRAQDRIVEVNGVCMEGKQHGDVVSAIRAGGDETKLLVVDRETDEFFKKCRVIPSQEHLNGPLPVPFTNGEIQKENSREALAEAALESPRPALVRSASSDTSEELNSQDSPPKQDSTAPSSTSSSDPILDFNISLAMAKERAHQKRSSKRAPQMDWSKKNELASNL [F355A], with “with no effect”.

Variants of B2 are the subject of another assay. The settings on record: with tb10a_human TBC1D10A.
Turning to MSADAAAGAPLPRLCCLEKGPNGYGFHLHGEKGKLGQYIRLVEPGSPAEKAGLLAGDRLVEVNGENVEKETHQQVVSRIRAALNAVRLLVVDPETDEQLQKLGVQVREELLRAQEAPGQAEPPAAAEVQGAGNENEPREADKSHPEQRELRPRLCTMKKGPAGYGFNLHSDKSKPGQFIRSVDPDSPAEASGLRAQDRIVEVNGVCMEGKQHGDVVSAIRAGGDETKLLVVDRETDEFFKKCRVIPSQEHLNGPLPVPFTNGEIQKENSREALAEAALESPRPALVRSASSDTSEELNSQDSPPKQDSTAPSSTSSSDPILDFNISLAMAKERAHQKRAAKRAPQMDWSKKNELFSNL [S162A;S339A;S340A], the “effect of a mutation on the interaction” value was “with no effect”.
